We go through 1 substance from US20230065782.

In data set [1] the test system is control peptide, an HES-bearing peptide of the same length, with the same labeling, that does not contain the conformation-dependent cleavage site.
The subject of data set [2] is eighteen amino acid peptide containing the amino acid sequence PLGIA, covalently labeled with the same fluorophore near each end (HES structure).

For matrix metalloprotease-9 (MMP-9), the “fluorescence intensity on addition of the MMP” value in data set [1] was “The fluorescence of the latter does not increase upon addition of the MMP”. Further, in data set [2], the “fluorescence intensity on cleavage of the HES peptide (peptide at 2 uM, pH 7.5 buffer)” value is “Cleavage of the peptide gives rise to an increase in fluorescence intensity”; the “reverse-phase HPLC retention time of the peptide before and after exposure to the protease” value is “After exposure to MMP-9, the major peaks were at ca. 30 and 31 minutes with the almost complete disappearance of the 38 minute peak”.
